In patent US20250313612A1 (Adimab, published 2025):
Substitutions are numbered along the chain they refer to.

B1: ADI-14476 (antibody, V domains shown)
VH: QVQLVESGPTLVKPTQTLSLTCTFSGFSLTTRGVGVGWIRQPPGKALEWLGFTYWDGDDRYSPSLRNRVSIAKDTSKNQVVLTLTNMDPVDTATYFCVHSDRYDRGGYYLYFFDYWGPGTLVTVSS
VL: DIRVTQSPSSLSASVGDRVSISCRASQTIASYVNWYQQRPGKAPQLLIFAASHLQTGVPSRFSGRGSGTDFTLTITSLQPEDFATYYCQQSYTSPYTFGQGTKVEIK
notes: full-length IgG (yeast-expressed); also called Antibody Number 38; Ab# 38
B2: ADI-14477 (antibody, V domains shown)
VH: EVQLVESGPTLVKPTQTLTLTCSLSGFSLTTRGVGVGWIRQPPGKAPECLGFVYWDDDNRYSPSLRGRLTISKDTSKNQVVLTLTNMDPLDTATYYCVHSDLYDRGGYYLFYFDDWGQGTLVTVSS
VL: DIQVTQSPSSLSASVGDRVTITCRASQPIASYLNWYQQKPGQAPKLLIYAASMLQSGAPSKFSGRGSGTDFTLTITTLQPEDFATYYCQQSYTFPYTFGQGTKVEIK
notes: full-length IgG (yeast-expressed); also called Antibody Number 39; Ab# 39
B3: ADI-14475 (antibody, V domains shown)
VH: QVQLVQSGPALVKPTQTLTLTCTFSGFSLTTARMCVSWIRQPPGKALEWLARIDWDDDKSYSTSLKTRLTIAKDTSKNQVVLTMTNMGPADTATYYCVRTPIYASGGYYLSYFDSWGQGTLVTVSS
VL: DIVMTQSPSSLSASVGDSVTITCRASQTIASYVNWYQHKPGQAPNLLIYAASILHSGVPSRFRGGGSGTDFTLTINSLQPEDFATYYCQQSYSTPYTFGQGTKVDIK
notes: full-length IgG (yeast-expressed); also called Antibody Number 37; Ab# 37
B4: ADI-14485 (antibody, V domains shown)
VH: EVQLVESGAEVKRPGSSVKVSCKVVGGSFSNYAISWVRQAPGQGPEYLGGIIPAFRTAKYAKKFQDRLTITADESTSTAYMEMRGLTSDDTGLYYCARPEGDFGDLKWLRSPFDYWGQGTLVTVSS
VL: EIVLTQSPATLSVSPGQRVTLSCRASQGVSINLAWYQQKPGQPPRLLIYGASTRATDIPARFSGSGSGTDFTLTISSLQSEDFAVYYCQQYDDWPPQLTFGPGTKLEIK
notes: full-length IgG (yeast-expressed); also called Antibody Number 46; Ab# 46
B5: ADI-14558 (antibody, V domains shown)
VH: QVQLVESGGGLIQPGASLRLSCGAYGFSFSSSAMSWVRQAPGKGLEWVSAISDNGGSTYYADSVQGRFTISRDNSKNTLYLQLNRLRAEDTAIYYCAKAYCSDSCHGGYFDYWGQGTLVTVSS
VL: EIVLTQSPATLSLSPGDRATLSCRASQSVSSSFAWYQQKPGQAPRLLIYAVSNRATGIPARFSGSGSGTDFTLTISTLEPEDFAVYYCQQRSTWPLTFGPGTKVEIK
B6: ADI-14543 (antibody, V domains shown)
VH: QVQLVQSGAEVKKPGSSVKVSCKASGDTFSSYAISWVRQAPGQGLEWMGGVLPMLGTANYAQRFRGRVTLTADGSTNTAYMEMSSLRLDDTAVYYCARVAGLGNSYGRYPDLWGQGTLVTVSS
VL: DIVMTQSPSSLSASVGDRVTITCRASQGISSSLAWYQQKPGKAPELLIYAASSLHSGVPSRFRGSGSGTDFTLTISSVQPEDFATYYCQQANSFPYTFGQGTKLEIK
B7: ADI-14555 (antibody, V domains shown)
VH: QVQLVQSGGGLVQPGGSLRLSCAASGLTFSSYAMSWVRQAPGKELEWVSSISESGVDTYYADSVKGRFTVSRDNSKSTLYLQMSSLGGDDTAVYYCAKAYCSNKACHGGYFDYWGQGTLVTVSS
VL: ETTLTQSPDTLSLSPGERATLSCRASQSVRNYLAWYRQKPGQAPRLLIYDASNLATGIPARFSGSGSGTDFTLTISSLEPEDFAVYYCHQRSDWPLTFGPGTKVEIK
B8: ADI-14541 (antibody, V domains shown)
VH: EVQLVESGGGLVRPGGSLRLSCAASGFAFSSYSLHWVRQAPGRGLEWVASISAGSSFTDYAASVRGRFTISRNIANSLYLQMNRLRAEDTAVYYCARVIGDGTILGVVF
VL: QSVLTQPPSVSGAPGQRVTISCTGGRSNIGAGYDVHWYQQLPGTAPKLLIYGNINRPSGVPDRFSGSKSGTSASLAITGLLAEDEADYYCQSYDSSLSVIFGGGTKLTVL
B9: ADI-14557 (antibody, V domains shown)
VH: QVQLQQWGAGLLKPSETLSLTCQVYGVSFSDYYWNWIRQSPGKGLEWIGDVNHIGNTDYNPSLKSRVSISVDTSKNQFSLTLRSVTAADTALYYCARGRKLFEVPPKAPDYWGQGTLVTVSS
VL: DIVMTQSPGTLSLSPGERATLSCRASQSVSSTYLAWYQQKPGQAPRLLIYGASIRATGIPDRFSGVGSGTDFTLTISRLEPEDVAVYYCQQYGSSPQTFGQGTKVEIK
B10: ADI-14540 (antibody, V domains shown)
VH: QVQLVESGGGVVQPGRSLRLSCAASGFTFTDYAMHWVRQAPGKGLQWVALISYNGRIQYYADSVKGRFTISRDDSKNTLYLQMNSLRAGDTAVYYCARDGDLVAVPAAIGFDSWGQGTLVTVSS
VL: DIQVTQSPDSLAVSLGERATINCKSSQSVLYTSNNKNYLAWYQQKSRQPPKLLIYWASTRESGVPERFSGSGSGTDFTLTISSLQAEDVAVYYCQQYSSPPYTFGQGTKVEIK
B11: ADI-14550 (antibody, V domains shown)
VH: QVQLVQSGGGVVQPGRSLRLSCAASGFTFSDYAMHWVRQAPGKGLQWVSLISYNGRKKYYADSVKGRFTISRDDSKNTLYLQMNPLRPDDTAVYYCARDGDIVAVPAAIGLDYWGQGTLVTVSS
VL: B10 VL with Q3V, V4L, D9E, K24N, R47G, V110L
B12: ADI-14544 (antibody, V domains shown)
VH: QVQLVQSGAEVKKPGESLKISCKGAGFGSTNSWIGWVRQMPGKGLEWMGVIFPGDSDTKYSPTFQGQVTISVDKSINTAYLQWSSLKASDTAIYYCARMLASVGLSNFDAWGQGTLVTVSS
VL: QPVLTQPPSVSLAPGKTATITCGGNNIGGKSVHWYQQKPGQAPVLVIDYDSDRPSGIPERFSGSNSGNTATLTINRVEAGDEADYYCQVWDSISDHVLFGGGTKLTVL
B13: ADI-14562 (antibody, V domains shown)
VH: EVQLVESGPEVKGPGSSVKVSCEASAATFSNYAISWVRQAPGQGLEWMGGFVPMLGTRNYAQKFKGRVTLTADVSTHTLYLEIGSLRFEDTAVYYCATVAGLGTSYGRYLESWGQGTLVTVSS
VL: DIRMTQSPSSVSASLGDRVTITCRASQDISTALAWYQQIPGKAPKLLIYEASSLQSGVPSRFRGSGSETDFALTISSLQPEDFATYYCQQAKSFPYTFGQGTKVEIK
B14: ADI-14533 (antibody, V domains shown)
VH: QVQLVQSGAEVKKPGSSVIISCKASGGTFRNYGFTWVRQAPGQGLEWLGGIIPMFETVRYAQKFQGRVTITADENTNTAFLAVSSLRSEDTGVYFCARDLQTGIMSSVRSEYRGFMDPWGQGTLVTVSS
VL: QSVLTQPPSVSGAPRQRVTISCSGSSSNIGTNAVNWYQQLPGKSPKVLIYYDELVPSGVSDRFSGSRSGTSASLAISGLRSEDEAYYYCAAWDDSLNGWVFGGGTQLTVL
B15: ADI-14556 (antibody, V domains shown)
VH: EVQLVESGGGLVQPGGSLRLSCAASGFTFRSYWMTWVRQAPGKGLEWVASINDEGNTKYYVDSLKGRFTISRDNAKNSLYLQMNSLRAEDTAVYYCARESGLPRGAFQIWGPGTMVTVSS
VL: EIVLTQSPVTLSLSPGERATLSCRASQSVGTFLAWYQHKPGQAPRLLIYDASNRASAIPARFSGSGSGTDFTLTISSLEPEDFAVYYCQHRSDWWTFGQGTKVEIK
B16: ADI-14542 (antibody, V domains shown)
VH: QVQLVQSGAEVKKPGESLKISCKGSGYVFSSYWVAWVRQMPGKGLEWMGIIYPHDSDTRYSPAFQGQVTISADKSINTAYLQWSSLKASDTAMYYCTIILIPAPIRAPDGFDIWGQGTTVTVSS
VL: NFMLTQPHSVSESPGKTVTISCTGSGGTIASNYVQWYQQRPGSVPTTVIYENNERPSGVPDRFSGSIDRSSNSASLTISGLKTEDEADYYCQSYDSSYHVVFGGGTKVTVL
B17: ADI-14545 (antibody, V domains shown)
VH: EVQLVESGGGLVKPGGSLRLSCAASGFTFSNAWMSWVRQAPGKGLEWVGRVKSKSKGGTTHYAEAVKGRFTISRDDSKNTLYLQMQSLKTEDTAVYYCTSHAYNSDWFVTTDYYYYMDVWGKGTTVTVSS
VL: DIVLTQSPSSLSASVGDRVTFTCRASQSISNYLNWYQQKPGKAPKVLIYGASNLLSGVPSRFIGSGSGTDFTLTINSLQPEDFATYYCQQCYSAPITFGQGTRLEIK
B18: ADI-14548 (antibody, V domains shown)
VH: EVQLVESGGGLVQPGGSLRLSCAASGFSFSTSWMSWVRQAPGKGLEWLANIKEDGSKKIYVDSVKGRFSISRDNAKNSLYLQMTSLRAEDTAVYYCARDVWGWELVGWLDPWGQGTLVTVSS
VL: SYELTQPPSVSVAPGKTASITCGGSNIGSRSVHWYQQKPGQAPVLVVYEDHDRPSGIPERFSGSNSGNTATLTISRVEAGDEADYYCQVWDSSRDHVVFGGGTKVTVL

target: RSV F protein of recombinant mKate-RSV, subtype A (strain A2) (Respiratory syncytial virus subtype A …, UniProt P03420 26-574); assay: cell-based or functional assay

| Binder | Neut IC50 subtype A |
| --- | --- |
| B1 | 0.929 µg/mL |
| B2 | > 10 µg/mL |
| B3 | 0.391 µg/mL |
| B4 | > 10 µg/mL |

target: RSV F protein of recombinant mKate-RSV, subtype B (18537) (Respiratory syncytial virus subtype B …, UniProt P13843 26-574); assay: cell-based or functional assay

| Binder | Neut IC50 subtype B |
| --- | --- |
| B1 | 2.19 µg/mL |
| B2 | > 10 µg/mL |
| B3 | 0.522 µg/mL |
| B4 | 2.81 µg/mL |

target: RSV F protein of subtype A (strain A2) on recombinant mKate-RSV (Respiratory syncytial virus subtype A …, UniProt P03420 26-574); assay: cell-based or functional assay

| Binder | Neut IC50 (µg/ml) subtype A |
| --- | --- |
| B5 | > 10 µg/mL |
| B6 | > 10 µg/mL |
| B7 | > 10 µg/mL |
| B8 | 0.023 µg/mL |
| B9 | > 10 µg/mL |
| B10 | > 10 µg/mL |
| B11 | 2.62 µg/mL |
| B12 | > 10 µg/mL |
| B13 | > 10 µg/mL |
| B14 | > 10 µg/mL |
| B15 | > 10 µg/mL |
| B16 | 0.008 µg/mL |
| B17 | 0.036 µg/mL |
| B18 | 0.034 µg/mL |

target: RSV F protein of subtype B (18537) on recombinant mKate-RSV (Respiratory syncytial virus subtype B …, UniProt P13843 26-574); assay: cell-based or functional assay

| Binder | Neut IC50 (µg/ml) subtype B |
| --- | --- |
| B5 | > 10 µg/mL |
| B6 | > 10 µg/mL |
| B7 | > 10 µg/mL |
| B8 | 0.106 µg/mL |
| B9 | > 10 µg/mL |
| B10 | > 10 µg/mL |
| B11 | > 10 µg/mL |
| B12 | > 10 µg/mL |
| B13 | 10.5 µg/mL |
| B14 | 0.442 µg/mL |
| B15 | > 10 µg/mL |
| B16 | 4.3 µg/mL |
| B17 | 0.073 µg/mL |
| B18 | 0.094 µg/mL |

target: T1, RSV F ectodomain stabilized in the postfusion conformation (F ΔFP), subtype B (Respiratory syncytial virus subtype B, UniProt P13843 26-109; P13843 147-524); assay: BLI, IgG on AHQ sensor, 100 nM antigen
T1 construct: extracellular domain; trimer; also called Postfusion subtype B; postF subtype B

| Binder | Kd |
| --- | --- |
| B1 | 9.12 nM |
| B2 | 1.22 nM |
| B3 | 0.242 nM |
| B4 | 0.642 nM |

target: T2, RSV F ectodomain stabilized in the postfusion conformation (F ΔFP), subtype A (Respiratory syncytial virus subtype A, UniProt P03420 26-109; P03420 147-524); assay: BLI, IgG on AHQ sensor, 100 nM antigen
T2 construct: extracellular domain; trimer; furin-cleaved; also called Postfusion subtype A

| Binder | Kd |
| --- | --- |
| B1 | 0.827 nM |
| B2 | 0.361 nM |
| B3 | 0.299 nM |
| B4 | 1.52 nM |
